# From US20190284268A1 (ABCENTRA, published 2019)
# Experiments:
# Fas (human) = Fas (human) (UniProt P25445); experiment: cell-based or functional assay
# oxidized LDL (oxLDL) = oxidized LDL (oxLDL) (UniProt P04114 28-4563, oxidized LDL particle; kind of oxidation not stated for this assay); experiment: cell-based or functional assay
# Sequence of oxidized LDL (oxLDL) (P04114 28-4563 limits assumed): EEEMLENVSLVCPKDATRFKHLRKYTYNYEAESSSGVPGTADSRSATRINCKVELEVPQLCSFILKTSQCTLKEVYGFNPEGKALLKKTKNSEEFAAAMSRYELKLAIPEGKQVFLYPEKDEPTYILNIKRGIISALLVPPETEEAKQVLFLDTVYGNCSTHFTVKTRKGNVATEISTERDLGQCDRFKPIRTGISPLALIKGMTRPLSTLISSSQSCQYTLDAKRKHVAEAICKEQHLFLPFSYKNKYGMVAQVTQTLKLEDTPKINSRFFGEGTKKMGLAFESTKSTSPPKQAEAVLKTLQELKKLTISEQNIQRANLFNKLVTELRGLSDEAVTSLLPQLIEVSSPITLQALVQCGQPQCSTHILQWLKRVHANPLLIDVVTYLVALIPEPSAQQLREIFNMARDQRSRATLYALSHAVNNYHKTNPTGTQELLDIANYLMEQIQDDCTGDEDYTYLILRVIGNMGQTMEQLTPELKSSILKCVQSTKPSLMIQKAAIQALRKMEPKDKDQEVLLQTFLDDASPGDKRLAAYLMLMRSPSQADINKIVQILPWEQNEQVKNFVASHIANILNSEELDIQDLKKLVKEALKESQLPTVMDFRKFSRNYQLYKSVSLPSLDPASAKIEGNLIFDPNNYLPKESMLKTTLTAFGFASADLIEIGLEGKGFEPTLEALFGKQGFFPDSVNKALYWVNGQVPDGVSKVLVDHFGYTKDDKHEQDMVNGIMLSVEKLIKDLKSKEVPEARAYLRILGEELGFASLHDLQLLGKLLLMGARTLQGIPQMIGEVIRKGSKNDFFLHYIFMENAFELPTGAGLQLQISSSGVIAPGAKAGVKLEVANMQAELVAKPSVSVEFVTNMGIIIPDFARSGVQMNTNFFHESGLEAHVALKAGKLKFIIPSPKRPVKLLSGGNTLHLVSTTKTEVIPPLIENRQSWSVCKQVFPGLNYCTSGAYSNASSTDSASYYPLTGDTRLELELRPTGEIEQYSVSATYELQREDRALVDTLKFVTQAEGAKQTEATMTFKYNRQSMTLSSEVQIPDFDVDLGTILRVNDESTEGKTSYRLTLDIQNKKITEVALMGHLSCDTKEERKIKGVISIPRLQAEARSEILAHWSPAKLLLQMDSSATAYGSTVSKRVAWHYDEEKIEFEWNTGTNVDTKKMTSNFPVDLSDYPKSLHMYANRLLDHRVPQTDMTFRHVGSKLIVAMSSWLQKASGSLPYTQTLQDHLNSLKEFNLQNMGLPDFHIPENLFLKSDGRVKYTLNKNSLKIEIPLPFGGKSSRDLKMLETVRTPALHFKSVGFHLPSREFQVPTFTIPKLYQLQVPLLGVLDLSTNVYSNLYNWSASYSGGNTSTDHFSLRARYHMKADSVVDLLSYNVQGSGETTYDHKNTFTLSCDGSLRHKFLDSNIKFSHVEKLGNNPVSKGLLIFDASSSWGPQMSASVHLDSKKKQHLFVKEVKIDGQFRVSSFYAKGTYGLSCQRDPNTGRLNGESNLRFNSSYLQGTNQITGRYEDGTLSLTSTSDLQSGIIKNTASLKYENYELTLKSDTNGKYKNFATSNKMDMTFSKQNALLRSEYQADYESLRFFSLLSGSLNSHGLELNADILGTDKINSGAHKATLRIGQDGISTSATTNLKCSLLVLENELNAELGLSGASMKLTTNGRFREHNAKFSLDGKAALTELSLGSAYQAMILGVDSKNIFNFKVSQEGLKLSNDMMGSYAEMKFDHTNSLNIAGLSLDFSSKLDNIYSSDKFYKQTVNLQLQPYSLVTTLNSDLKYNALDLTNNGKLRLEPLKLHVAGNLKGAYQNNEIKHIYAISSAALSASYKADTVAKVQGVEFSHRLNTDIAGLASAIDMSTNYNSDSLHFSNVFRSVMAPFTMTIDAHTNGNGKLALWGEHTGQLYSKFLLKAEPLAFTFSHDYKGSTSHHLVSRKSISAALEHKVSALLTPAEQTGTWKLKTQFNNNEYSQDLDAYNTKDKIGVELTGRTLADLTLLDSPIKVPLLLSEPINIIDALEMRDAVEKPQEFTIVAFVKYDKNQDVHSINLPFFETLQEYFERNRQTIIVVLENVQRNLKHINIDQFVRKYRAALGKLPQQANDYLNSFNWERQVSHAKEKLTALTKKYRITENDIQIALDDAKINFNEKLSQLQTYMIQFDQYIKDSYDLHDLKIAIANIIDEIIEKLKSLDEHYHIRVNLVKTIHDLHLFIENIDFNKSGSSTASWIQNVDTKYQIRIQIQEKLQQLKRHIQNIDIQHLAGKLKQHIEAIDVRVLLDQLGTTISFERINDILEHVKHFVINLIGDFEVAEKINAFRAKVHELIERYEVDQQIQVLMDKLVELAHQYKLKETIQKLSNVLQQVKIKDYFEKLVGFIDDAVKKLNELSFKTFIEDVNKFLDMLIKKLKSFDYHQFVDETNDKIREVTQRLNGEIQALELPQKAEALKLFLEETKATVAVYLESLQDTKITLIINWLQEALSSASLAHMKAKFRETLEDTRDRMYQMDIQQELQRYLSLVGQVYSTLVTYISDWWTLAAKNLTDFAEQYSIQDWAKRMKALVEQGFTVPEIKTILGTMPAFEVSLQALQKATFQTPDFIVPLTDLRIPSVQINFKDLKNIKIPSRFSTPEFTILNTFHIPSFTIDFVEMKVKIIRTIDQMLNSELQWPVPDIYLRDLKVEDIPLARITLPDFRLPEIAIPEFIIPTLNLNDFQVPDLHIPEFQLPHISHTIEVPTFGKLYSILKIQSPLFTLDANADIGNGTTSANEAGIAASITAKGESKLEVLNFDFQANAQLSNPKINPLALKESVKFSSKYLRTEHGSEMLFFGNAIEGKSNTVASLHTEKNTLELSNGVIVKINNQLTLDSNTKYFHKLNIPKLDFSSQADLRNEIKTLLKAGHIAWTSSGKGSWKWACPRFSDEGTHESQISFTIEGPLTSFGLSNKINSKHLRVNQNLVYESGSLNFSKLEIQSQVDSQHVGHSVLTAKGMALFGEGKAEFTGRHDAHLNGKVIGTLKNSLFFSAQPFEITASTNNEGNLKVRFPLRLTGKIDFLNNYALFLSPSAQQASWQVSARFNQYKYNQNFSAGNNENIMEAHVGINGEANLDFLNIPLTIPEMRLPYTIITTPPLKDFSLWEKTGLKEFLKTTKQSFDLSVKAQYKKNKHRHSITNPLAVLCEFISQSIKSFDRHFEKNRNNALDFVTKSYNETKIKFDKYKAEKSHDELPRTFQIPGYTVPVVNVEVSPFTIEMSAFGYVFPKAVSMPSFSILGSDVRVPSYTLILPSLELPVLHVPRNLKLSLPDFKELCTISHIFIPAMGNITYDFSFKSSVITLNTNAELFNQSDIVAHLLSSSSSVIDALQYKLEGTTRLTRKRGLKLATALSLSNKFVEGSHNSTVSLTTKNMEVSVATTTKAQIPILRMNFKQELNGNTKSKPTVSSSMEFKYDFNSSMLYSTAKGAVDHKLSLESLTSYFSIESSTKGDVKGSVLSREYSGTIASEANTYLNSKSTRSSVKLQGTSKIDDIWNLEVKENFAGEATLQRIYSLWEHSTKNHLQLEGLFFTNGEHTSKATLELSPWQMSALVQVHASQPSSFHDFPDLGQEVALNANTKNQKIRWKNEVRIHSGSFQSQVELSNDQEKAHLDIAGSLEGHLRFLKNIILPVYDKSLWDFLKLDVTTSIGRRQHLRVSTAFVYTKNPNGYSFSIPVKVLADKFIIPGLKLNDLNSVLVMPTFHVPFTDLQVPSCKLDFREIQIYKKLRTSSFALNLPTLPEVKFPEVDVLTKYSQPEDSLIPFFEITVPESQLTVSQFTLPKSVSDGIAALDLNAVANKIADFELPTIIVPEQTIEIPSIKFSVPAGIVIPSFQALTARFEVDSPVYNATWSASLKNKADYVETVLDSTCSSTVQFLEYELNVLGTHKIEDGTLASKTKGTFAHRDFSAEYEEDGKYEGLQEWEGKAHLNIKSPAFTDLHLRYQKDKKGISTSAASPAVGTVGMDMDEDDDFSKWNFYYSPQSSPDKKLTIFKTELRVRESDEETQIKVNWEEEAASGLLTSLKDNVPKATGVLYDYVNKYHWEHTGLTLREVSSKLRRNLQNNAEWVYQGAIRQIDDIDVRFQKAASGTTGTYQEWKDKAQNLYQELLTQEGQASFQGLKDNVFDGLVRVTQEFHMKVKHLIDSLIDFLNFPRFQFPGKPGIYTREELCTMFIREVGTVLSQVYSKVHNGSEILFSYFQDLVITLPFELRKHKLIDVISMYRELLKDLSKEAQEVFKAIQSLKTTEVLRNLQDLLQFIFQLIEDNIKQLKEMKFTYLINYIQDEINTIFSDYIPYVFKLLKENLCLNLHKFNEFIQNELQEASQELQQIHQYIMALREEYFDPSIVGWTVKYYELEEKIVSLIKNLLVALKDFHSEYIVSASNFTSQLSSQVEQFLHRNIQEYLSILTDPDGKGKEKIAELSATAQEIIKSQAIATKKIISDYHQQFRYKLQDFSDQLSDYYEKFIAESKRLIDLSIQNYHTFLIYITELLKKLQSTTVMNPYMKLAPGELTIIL
# Sequence of Fas (human) (P25445 26-335): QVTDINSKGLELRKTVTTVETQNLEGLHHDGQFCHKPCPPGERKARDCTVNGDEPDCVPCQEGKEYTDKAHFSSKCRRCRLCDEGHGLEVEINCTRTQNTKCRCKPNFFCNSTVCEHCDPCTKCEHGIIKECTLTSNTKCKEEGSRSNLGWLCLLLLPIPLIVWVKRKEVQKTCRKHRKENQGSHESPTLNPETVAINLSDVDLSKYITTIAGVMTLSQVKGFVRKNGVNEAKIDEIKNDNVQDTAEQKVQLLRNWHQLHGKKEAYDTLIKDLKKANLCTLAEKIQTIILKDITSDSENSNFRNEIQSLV
molecule,measurement,setting,value
soluble Fas ligand (from UniProt P48023 134-281),release of FAS from PBMCs of SLE patients,Fas (human),73%
"orticumab (antibody, human IgG1, lambda, V domains shown) VH: EVQLLESGGGLVQPGGSLRLSCAASGFTFSNAWMSWVRQAPGKGLEWVSSISVGGHRTYYADSVKGRSTISRDNSKNTLYLQMNSLRAEDTAVYYCARIRVGPSGGAFDYWGQGTLVTVSS VL: QSVLTQPPSASGTPGQRVTISCSGSNTNIGKNYVSWYQQLPGTAPKLLIYANSNRPSGVPDRFSGSKSGTSASLAISGLRSEDEADYYCASWDASLNGWVFGGGTKLTVLG",IC50 for MCP-1 inhibition,oxidized LDL (oxLDL),~10 nM
